Paper PMC12350838

Key:
[1] = biological target: BoDV-1 L-P complex (one L-protein with a tetramer of P-protein) (Borna disease virus 1 (BoDV-1)); test: cryo-EM structure; Sample 2, reaction conditions: L-P complex with 25 μM 23mer template RNA, 20 μM triphosphorylated 6mer primer, 1 mM SAM, 1 mM each NTP, 1 h on ice, diluted to 0.4 mg/ml; single particle analysis, re-extraction in a larger box and 2D classification
[2] = biological target: BoDV-1 L-P complex (one L-protein with a tetramer of P-protein) (Borna disease virus 1 (BoDV-1)); test: cryo-EM structure; Sample 1, RNA-free: co-expressed and co-purified L-P complex used immediately after elution, 0.33 mg/ml on grids; single particle analysis with 2D and 3D classification
[3] = biological target: Borna disease virus 1 (BoDV-1) large protein (L-protein) (Borna disease virus 1 (BoDV-1)); test: as above
[4] = biological target: Borna disease virus 1 (BoDV-1) phosphoprotein (P-protein) (Borna disease virus 1 (BoDV-1)); test: as above

Substance	percent of particles as dimers [1] [%]	stoichiometry N [1]	percent of particles as tetramers [2] [%]	stoichiometry N [2]	stoichiometry N (P-protein chains per L-protein) [3]	stoichiometry N [4]
BoDV-1 L-P complex (one L-protein with a tetramer of P-protein)	6	2	0.2	4	–	–
Borna disease virus 1 (BoDV-1) phosphoprotein (P-protein) (natural protein)	–	–	–	–	4	4
